Article PMC11272775, “Epigenetic memory is governed by an effector recruitment specificity toggle in Heterochromatin Protein 1” (Nature Communications, 2024)
Numbering of substitutions follows the chain as printed. Names and notes keep the numbering of the source. Values belong to the molecule of their own block, whether it stands above or below them.

Legend:
[1] = tested on: Swi6-WT (Schizosaccharomyces pombe); assay: EMSA; conditions: 20 mM Hepes pH 7.5, 4 mM Tris, 80 mM KCl, 0.1% Igepal CA-630, 0.2 mM EDTA, 2 mM DTT, 10% glycerol, 10 nM mononucleosome, 30 °C 45 min, 6% acrylamide 0.5x TBE …
H3K9me3 mononucleosomes = assay: native gel or EMSA; Swi6 varied, 10 nM mononucleosomes; 20 mM Hepes pH 7.5, 4 mM tris, 80 mM KCl, 0.1% Igepal CA-630, 0.2 mM EDTA, 2 mM DTT, 10% glycerol; 30 °C for 45 min; unbound nucleosome band quantified; apparent K1/2
[2] = biological target: the molecule itself; assay: mass photometry; full-length recombinant Swi6 at 2.5-20 nM in 20 mM HEPES pH 7.5, 100 mM KCl; apparent dimerization constants (Kdim) from the relative abundance of monomer and dimer; dimer to monomers
MBP-Epe1 = biological target: T1, MBP-Epe1 (S. pombe, UniProt O94603 1-948); assay: pull-down; recombinant 3X FLAG-Swi6 immobilised on FLAG M2 beads, three concentrations of recombinant MBP-Epe1; 20 mM HEPES pH 7.5, 150 mM NaCl, 5 mM MgCl2, 10% glycerol, 0.25% Triton X-100, 1 mM DTT; 2 h at 4 °C; blots with anti-MBP and M2 Flag antibodies; conditions: both partners purified
T1 construct: Epe1, S. pombe, full-length; also called MBP-His-TEV-Epe1; recombinant MBP-Epe1 fusion protein; source: Hi5 cells infected with baculovirus, purified (amylose resin, Superdex 200); not shown: MBP, N-terminal, kept
T1 sequence (looked up): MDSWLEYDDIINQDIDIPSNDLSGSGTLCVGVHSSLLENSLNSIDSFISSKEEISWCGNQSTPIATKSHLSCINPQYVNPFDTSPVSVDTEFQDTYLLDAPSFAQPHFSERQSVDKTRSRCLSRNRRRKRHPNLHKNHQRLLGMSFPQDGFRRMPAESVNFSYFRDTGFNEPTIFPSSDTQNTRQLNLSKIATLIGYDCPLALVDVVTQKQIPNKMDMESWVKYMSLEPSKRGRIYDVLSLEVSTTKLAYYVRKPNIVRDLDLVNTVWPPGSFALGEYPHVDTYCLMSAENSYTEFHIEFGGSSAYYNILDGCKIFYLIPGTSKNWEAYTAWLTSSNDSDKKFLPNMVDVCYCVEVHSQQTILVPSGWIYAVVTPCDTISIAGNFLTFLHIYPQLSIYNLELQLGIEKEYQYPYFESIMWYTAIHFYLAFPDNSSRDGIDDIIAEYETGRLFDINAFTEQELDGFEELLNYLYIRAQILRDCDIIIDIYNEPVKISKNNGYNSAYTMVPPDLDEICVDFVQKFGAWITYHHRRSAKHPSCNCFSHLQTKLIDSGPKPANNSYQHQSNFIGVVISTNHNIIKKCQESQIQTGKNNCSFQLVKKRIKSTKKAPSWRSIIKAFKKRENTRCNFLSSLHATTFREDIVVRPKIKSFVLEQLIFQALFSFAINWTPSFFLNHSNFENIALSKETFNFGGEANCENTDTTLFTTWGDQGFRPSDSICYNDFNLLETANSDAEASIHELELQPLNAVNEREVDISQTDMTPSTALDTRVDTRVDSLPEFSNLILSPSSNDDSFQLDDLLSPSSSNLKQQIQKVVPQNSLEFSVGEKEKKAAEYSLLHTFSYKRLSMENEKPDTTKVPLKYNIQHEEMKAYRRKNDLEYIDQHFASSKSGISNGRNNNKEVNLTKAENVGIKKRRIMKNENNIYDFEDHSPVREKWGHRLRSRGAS

Molecule: H3K9me3 mononucleosome
K half ([1]; H3K9me3 histone, histone H3K9me3 (DNA unmodified)): 50 nM

Molecule: H3K9me0 mononucleosome
binding signal (fold weaker than H3K9me3) ([1]; H3K9me0 histone, unmodified H3 (H3K9me0)): 2.4

apparent K1/2 (H3K9me3 mononucleosomes): 50 nM
specificity for H3K9me3 over H3K9me0 mononucleosomes (H3K9me3 mononucleosomes): 2.4 fold
B1: Swi6-WT (recombinant, full-length) (natural protein, S. pombe, UniProt P40381 1-328, looked up)
chain: MKKGGVRSYRRSSTSKRSVIDDDSEPELPSMTKEAIASHKADSGSSDNEVESDHESKSSSKKLKENAKEEEGGEEEEEDEYVVEKVLKHRMARKGGGYEYLLKWEGYDDPSDNTWSSEADCSGCKQLIEAYWNEHGGRPEPSKRKRTARPKKPEAKEPSPKSRKTDEDKHDKDSNEKIEDVNEKTIKFADKSQEEFNENGPPSGQPNGHIESDNESKSPSQKESNESEDIQIAETPSNVTPKKKPSPEVPKLPDNRELTVKQVENYDSWEDLVSSIDTIERKDDGTLEIYLTWKNGAISHHPSTITNKKCPQKMLQFYESHLTFRENE
notes: Swi6, HP1 homolog of S. pombe; MW 37,292.6 g/mol; source: E. coli BL21(DE3)-RIPL, purified (Ni-NTA, anion exchange, SEC); not shown: 6XHis, N-terminal, cleaved
Kd [2]: 0.38 nM
stoichiometry N [2]: 2

binding result (MBP-Epe1): binds
B2: 3X FLAG-Swi6-WT (recombinant) (natural protein, S. pombe, UniProt P40381 1-328, looked up)
chain: B1 chain
notes: Swi6, HP1 homolog of S. pombe; source: E. coli BL21(DE3)-RIPL, purified (recombinant); not shown: 6XHis, N-terminal, cleaved

B3: Swi6-T278K (recombinant, full-length) (natural protein, S. pombe, UniProt P40381 1-328, looked up)
chain: B1 chain with T278K
notes: Swi6, HP1 homolog of S. pombe, with T278K; MW 37,319.7 g/mol; also called Swi6-K; source: E. coli BL21(DE3)-RIPL, purified (Ni-NTA, anion exchange, SEC); not shown: 6XHis, N-terminal, cleaved
Kd [2]: 0.2 nM
stoichiometry N [2]: 2

apparent K1/2 (H3K9me3 mononucleosomes): 39 nM
specificity for H3K9me3 over H3K9me0 mononucleosomes (H3K9me3 mononucleosomes): 2.3 fold
B4: Swi6-T278Y (recombinant, full-length) (natural protein, S. pombe, UniProt P40381 1-328, looked up)
chain: B1 chain with T278Y
notes: Swi6, HP1 homolog of S. pombe, with T278Y; MW 37,354.7 g/mol; also called Swi6-Y; source: E. coli BL21(DE3)-RIPL, purified (Ni-NTA, anion exchange, SEC); not shown: 6XHis, N-terminal, cleaved
Kd [2]: 0.27 nM
stoichiometry N [2]: 2
